# T1: HMG2 (Bos taurus, UniProt P40673)
# T1 construct: from tissue; host or cells: calf thymus (as read from the sentence)
# T1 sequence (P40673 1-209): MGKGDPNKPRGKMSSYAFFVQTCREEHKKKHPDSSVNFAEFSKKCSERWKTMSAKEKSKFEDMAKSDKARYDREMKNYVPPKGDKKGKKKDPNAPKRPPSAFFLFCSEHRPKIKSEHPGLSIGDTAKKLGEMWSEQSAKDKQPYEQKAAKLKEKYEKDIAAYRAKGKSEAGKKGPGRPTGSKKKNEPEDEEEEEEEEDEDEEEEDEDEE
# T2: recombinant HMG1 binding to RAGE-Fc (Homo sapiens, UniProt P09429)
# T2 construct: made in house; host or cells: E. coli (HMG1)
# T2 sequence (P09429 1-215): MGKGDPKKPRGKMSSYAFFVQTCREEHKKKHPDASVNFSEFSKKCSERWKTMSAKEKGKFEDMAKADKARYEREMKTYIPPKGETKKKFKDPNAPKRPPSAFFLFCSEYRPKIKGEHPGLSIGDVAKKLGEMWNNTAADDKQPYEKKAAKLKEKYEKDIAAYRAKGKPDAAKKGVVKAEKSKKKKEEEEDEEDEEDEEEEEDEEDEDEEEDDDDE
# Legend:
# [1] = Isoelectric focusing gel electrophoresis; format: physicochemical
# Method: Isoelectric Focusing Gel Electrophoresis: Isoelectric points were determined using a Pharmacia Biotech Multiphor 2 electrophoresis system with a multi temp 3 refrigerated bath recirculation unit and an EPS 3501 XL power supply. Pre-cast ampholine gels (Amersham Biosciences, pI range 2.5-10) were loaded with 5 μg of protein. Broad range pI marker standards (Amersham, pI range 3-10, 8 μL) were used to determine relative pI for the Mabs. Electrophoresis was performed at 1500 V, 50 mA for 105 minutes. The gel was fixed using a Sigma fixing solution (5×) diluted with purified water to 1×. Staining was performed overnight at room temperature using Simply Blue stain (Invitrogen). Destaining was carried out with a solution that consisted of 25% ethanol, 8% acetic acid and 67% purified water. Isoelectric points were determined using a Bio-Rad Densitometer relative to calibration curves of the standards.
# [2] = system: HMG1 (recombinant, native; immobilized, soluble); assay: Direct and sandwich (capture) ELISA comparing forms of HMG1; format: binding; details: two ELISA formats, rHMG1
# Method: Direct ELISA (immobilized HMG1): Individual wells of a 96-well immunoplate (EIA/RIA plate, High binding, Costar) were coated with HMGB-1 at 5 μg/ml in PBS at 4° C. overnight. The plate was then blocked with 4% milk powder dissolved in PBS at 37° C. for 1 hour. The blocking solution was removed and replaced with human anti-HMG1 antibodies at various concentrations (see FIG. 4A). The plate was then washed (ELX-405 Plate washer, BIO-TEK) and secondary antibody (anti-human IgG-HRP, PIERCE) was added at a final concentration of 1:125,000 at 37° C. for 1 hour. HRP activity was detected with Sureblue HRP substrate (KPL). Plates were read at 450 nm using a Kinetic Microplate Reader (Molecular Devices).
# Sandwich ELISA (soluble HMG1): Immunoplates (EIA/RIA plate, High binding, Costar) were coated with anti human IgG Fc at 10 μg/ml in PBS (pH 7.2) and incubated at 4° C. overnight. The coating reagent was removed and the plates were rinsed briefly with PBS. The plates were then blocked with 4% milk for 1 hour at 37° C. and rinsed with PBS. The anti-HMG1 antibodies were diluted in 4% milk. For serial dilutions, the antibodies were used at a starting concentration of 20 μg/ml. The diluted anti-HMG1 antibodies were then added into plate and incubated for 1 hr at 37° C. The plate was then washed 10 times with PBST (PBS/0.1% tween 20) and incubate with antigen (HMGB1, 2 μg/ml; or 0.7 μg/ml for native HMGB1) in 4% milk and incubated at 37° C. for 1 h. The plate was then wash 10 times and incubated with mouse anti-HMGB1, 1 μg/ml in 4% milk at 37° C. for 1 h. The plate was washed 10 times and incubated with anti-mouse IgG-HRP at 1:1000 at 37° C. for 1 h. The plate was then washed and developed. HRP activity was detected with Sureblue HRP substrate (KPL). Plates were read at 450 nm using a Kinetic Microplate Reader (Molecular Devices).
# [3] = biological target: T1, HMG2; assay: Binding to HMG1 vs. HMG2 ELISA; design: species or system calf; details: immobilized antigen
# Method: Binding to HMG1 vs. HMG2: Ultra high-binding ELISA plates (ThermoLab systems, #3855) were coated with either 5 ug/mL of Calf thymus HMGB1 or HMBG2 diluted in 10 mM Phosphate buffered saline (PBS), pH 7.2 and incubate overnight at 4 degrees. The plates were washed twice with Ca and Mg free PBS and 100 microliters of anti-HMGB1 antibody diluted in 10 mM PBS, pH 7.2+1% bovine serum albumin (BSA) to a final concentration of 10 ug/mL was added to each well and the plates were incubated 1 hour at room temperature. The wells were washed three times with 100 μl of PBS, pH 7.2. HRP labeled goat-anti-human IgG Kappa-chain (KPL, #14-10-10) and goat-anti-human IgG Lambda-chain (KPL, #14-10-11) were diluted in 10 mM PBS+1% BSA 1:1000 and 100 μl were added to each well and incubated for 1 hour at room temperature. The wells were then washed three times with 100 μl of PBS, pH 7.2. OPD substrate (Pierce chemical company, #34006) was prepared following the manufacturers instructions and 100 μl of prepared substrate was added to each well and the plates incubated at room temperature in the dark for 20-30 minutes. The reaction was stopped with the addition of 100 μl of 2M H2SO4, and the plates read on a plate reader at a wavelength of 490 nm.
# [4] = biological target: T2, recombinant HMG1 binding to RAGE-Fc; assay: HMG1 binding to RAGE-Ig by ELISA; details: at the concentrations tested
# Method: HMG1 binding to RAGE-Ig by ELISA: 50 μl/well of RAGE-Fc fusion protein at 5 μg/ml in PBS was added to each well of an ELISA plate and incubated overnight at 4° C. The plate was then blocked with 200 μl of 5% milk at 37° C. for 1 hr and washed 3× with PBS/Tween. 50 μl/well of diluted HMGB1 solution. For dose curves, HMGB1 concentrations started at 4 ug/ml in PBS. For antibody blocking the HMGB1 was preincubated in another plate with human anti-HMG1 antibodies or buffer, then transferred to the RAGE-coated plate. The plates were then incubated at room temperature for 2 hours and washed 3×. To detect any HMG1 bound to the immobilized RAGE-Fc a mixture of biotinylated mouse anti-HMG1 mAbs (10D4, 4H11, 3E10 and 5C12) each at 1 ug/ml, total Ab: 4 ug/ml, were added to each well and the plate was incubated for 1 hour at room temperature. The plate was then washed and Strepavidin-HPR was added to each well and incubated 15 min. The plate was then washed 3× and blotted dry. 100 μl of TMB developing agent was added and the plate read at 650 nm. Values were calculated as percent of inhibition with HMG1 alone equal to 0% inhibition. The data in FIG. 9 and summarized in Table 1 represent the average of two separate experiments.
molecule,measurement,setting,value
"S17: human anti-HMG1 antibody; VL/VH aa SEQ ID NO: 70/72 (antibody, listed as Homo sapiens, V domains shown) VH: EVQLLESGGGLVQPGGSLRLSCAASGFTFSYYDMHWVRQAPGKGLEWVSRISPSGGYTWYADSVKGRFTISRDNSKNTLYLQMNSLRAEDTAVYYCTRGRYTSGWHEYFDPWGQGTLVTVSS VL: AQDIQMTQSPSSLSASVGDRVTITCRASQSIGTYLNWYQQKPGTAPKVLIYAASSLQSGVPSRFSGSGSGTDFTLTISSLQPEDFSTYYCQQSYNTPRTFGQGTKLEIK",PI,[1],8.7
same,binding to immobilized versus soluble HMG1,[2],to a lesser extent S17 have a higher affinity for soluble HMG1
same,relative binding to HMG1 and HMG2,[3],specific for HMG1
same,block of recombinant HMG1 binding to RAGE,[4],do not at the concentrations tested
"G2: human anti-HMG1 IgG1 from Fab phage display library; VL/VH aa SEQ ID NO: 30/32 (antibody, listed as Homo sapiens, V domains shown) VH: EVQLLESGGGLVQPGGSLRLSCAASGFTFSWYKMQWVRQAPGKGLEWVSGISPSGGSTAYADSVKGRFTISRDNSKNTLYLQMNSLRAEDTAVYYCAKMGLFNTGNSYVDYWGQGTLVTVSS VL: AQSELTQPPSVSEAPGQRVTISCSGSTSNIGNNAVIWYQQLPGKAPKLLIYYDDLLPSGVSDRFSGSKSGTSGSLAISGLQSEDEADYYCASWDDNLNGPLFGGGTKLTVL",PI,[1],7.78
same,binding to immobilized versus soluble HMG1,[2],little difference in binding to immobilized or soluble HMG1
same,relative binding to HMG1 and HMG2,[3],specific for HMG1
same,block of recombinant HMG1 binding to RAGE,[4],significant ability to block the binding of HMG1 to RAGE
